The source of these data is US9844589.

Test [1] addresses CON6 gp120 (artificial HIV-1 group M consensus). Nature of the test: ELISA endpoint titer (3 fold over background) on CON6 gp120. A general note: An ELISA detects its analyte on a solid surface through an enzyme-linked reagent.
The target of test [2] is CON6 gp140CF (artificial HIV-1 group M consensus).

Where only a bound is given, the exact number is not on record here.

For the substance A32 (antibody), the concentration at endpoint titer in test [1] was less than 0.125 µg/mL.

In test [1], 447 (antibody) displayed a concentration at endpoint titer of less than 0.003 µg/mL. The substance IgG1b12 (antibody) gave a concentration at endpoint titer in test [1] of less than 0.002 µg/mL. For the substance 2F5 (antibody), the concentration at endpoint titer in test [2] amounted to 0.016 µg/mL.
